This is an account of results in patent US20190263904A1 (TENEOBIO, published 2019).

The labels stand for the following.
B1: anti-CD3 FlicAb ID 304703 (SEQ ID NO:39) (antibody, V domains shown)
VH: QLQLQESGPGLVKPSQTLSLTCTVSGGSISSGGHYWSWIRQHPGKGLEWIGYIHYSGSTYYNPSLKSRVIISVDTSKNQFSLKLRSVTAADTAVYYCARWRHDIFAAYPYYYYGMDVWGQGTLVTVSS
VL: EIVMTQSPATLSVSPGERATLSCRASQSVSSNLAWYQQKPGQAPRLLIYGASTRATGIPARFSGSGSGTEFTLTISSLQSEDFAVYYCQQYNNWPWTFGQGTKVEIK
notes: fully human IgG1 with the fixed kappa light chain
B2: anti-CD3 FlicAb ID 313306 (SEQ ID NO:1) (antibody, V domains shown)
VH: B1 VH with T23S, S30R, Y55H, V94I, A106T, A107T
VL: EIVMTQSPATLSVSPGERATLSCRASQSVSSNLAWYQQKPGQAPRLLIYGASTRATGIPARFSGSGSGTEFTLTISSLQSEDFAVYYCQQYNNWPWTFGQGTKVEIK
notes: fully human IgG1 with the fixed kappa light chain; also called αCD3_F1F
B3: anti-CD3 FlicAb ID 313329 (SEQ ID NO:6) (antibody, V domains shown)
VH: B1 VH with Q16E, Y55H, Y60N, V69I, I70T, L84V, R85S
VL: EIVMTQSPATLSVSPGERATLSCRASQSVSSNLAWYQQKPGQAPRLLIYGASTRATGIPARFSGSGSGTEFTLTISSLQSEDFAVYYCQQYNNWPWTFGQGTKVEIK
notes: as for B1

Positions count from the first letter of the chain named.

The target of this experiment is T1, cynomolgus CD3 (cynomolgus, UniProt Q95LI5 22-198; Q95LI8 22-171).
T1 construct: Rats were immunised with cynomolgus CD3-epsilon/delta constructs; also called CD3 protein of Cynomolgus macaque; non-human primate CD3 proteins
T1 sequence (Q95LI5 22-198, chain 1 of 2): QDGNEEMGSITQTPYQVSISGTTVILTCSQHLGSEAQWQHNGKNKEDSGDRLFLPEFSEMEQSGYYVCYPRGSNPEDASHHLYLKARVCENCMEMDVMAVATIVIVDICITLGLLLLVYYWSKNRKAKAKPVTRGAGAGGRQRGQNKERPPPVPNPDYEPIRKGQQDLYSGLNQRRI
T1 sequence (Q95LI8 22-171, chain 2 of 2): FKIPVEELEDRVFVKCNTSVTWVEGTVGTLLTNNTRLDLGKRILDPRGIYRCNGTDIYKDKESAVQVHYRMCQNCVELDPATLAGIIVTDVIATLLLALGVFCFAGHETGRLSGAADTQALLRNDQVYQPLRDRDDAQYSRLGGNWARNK
The experiment can be described thus: flow cytometry, parental monospecific anti-CD3 on cyno T-cells.
With B1, the “Cyno T-cell bind (MFI)” value is 26.2 MFI.
For the molecule B2, the “Cyno T-cell bind (MFI)” value turned out to be 71.7 MFI.
To B3 belongs 17.4 MFI.
